From the supplement of paper PMC9112550, “Optimization of the antimicrobial peptide Bac7 by deep mutational scanning” (BMC Biology, 2022)

System: Escherichia coli TOP10
Assay: shrunken log2 fold change of peptide-encoding DNA abundance (4.5 h post-induction vs induction); higher = less antimicrobial activity (less host growth inhibition)
Conditions: time post-induction: 4.5 h; library: site-saturation at positions 5, 18, 19, 20
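Further: peptides expressed intracellularly from a pBAD plasmid library in pooled LB shake-flask culture, induced with 0.3% L-arabinose, DNA abundance read by NGS, three biological replicates, DESeq2 with apeglm shrinkage.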

How did the “shrunken log2 fold change” value turn out when RRIRPRPPRLPRPRPRPKTLPRP was run?
The value was -0.0149.

For RRIRPRPPRLPRPRPRPKTNPRP, which “shrunken log2 fold change” value is on record?
Its value is 0.0176.

RRIRPRPPRLPRPRPRPKVDPRP was tested. Which “shrunken log2 fold change” value did it give?
The value was 0.0884.

RRIRPRPPRLPRPRPRPKVGPRP was tested. Which “shrunken log2 fold change” value did it give?
Its value is 0.172.

With RRIRPRPPRLPRPRPRPKVSPRP as the sequence, how does the “shrunken log2 fold change” value read?
The value was 0.0436.

With RRIRPRPPRLPRPRPRPKWHPRP as the sequence, how does the “shrunken log2 fold change” value read?
The value was 0.173.

With RRIRPRPPRLPRPRPRPKWIPRP as the sequence, how does the “shrunken log2 fold change” value read?
Its value is -0.465.

RRIRPRPPRLPRPRPRPKWMPRP was tested. Which “shrunken log2 fold change” value did it give?
Its value is -0.158.

For RRIRPRPPRLPRPRPRPKYAPRP, which “shrunken log2 fold change” value is on record?
Its value is -0.102.

RRIRPRPPRLPRPRPRPKYDPRP was tested. Which “shrunken log2 fold change” value did it give?
Its value is -0.612.

With RRIRPRPPRLPRPRPRPLAHPRP as the sequence, how does the “shrunken log2 fold change” value read?
Its value is 0.183.

Which “shrunken log2 fold change” value does the source give for RRIRPRPPRLPRPRPRPLALPRP here?
The value was 0.193.

RRIRPRPPRLPRPRPRPLCKPRP was tested. Which “shrunken log2 fold change” value did it give?
The value was 0.041.

For RRIRPRPPRLPRPRPRPLDNPRP, which “shrunken log2 fold change” value is on record?
The value was -0.171.

With RRIRPRPPRLPRPRPRPLDRPRP as the sequence, how does the “shrunken log2 fold change” value read?
The value was -0.000978.

How did the “shrunken log2 fold change” value turn out when RRIRPRPPRLPRPRPRPLEAPRP was run?
Its value is 0.249.

For RRIRPRPPRLPRPRPRPLEGPRP, which “shrunken log2 fold change” value is on record?
Its value is 0.179.

RRIRPRPPRLPRPRPRPLEHPRP was tested. Which “shrunken log2 fold change” value did it give?
The value was -0.565.

Which “shrunken log2 fold change” value does the source give for RRIRPRPPRLPRPRPRPLEKPRP here?
The value was 0.261.

RRIRPRPPRLPRPRPRPLFAPRP was tested. Which “shrunken log2 fold change” value did it give?
The value was 0.206.

Which “shrunken log2 fold change” value does the source give for RRIRPRPPRLPRPRPRPLFQPRP here?
Its value is -0.0669.

Which “shrunken log2 fold change” value does the source give for RRIRPRPPRLPRPRPRPLHNPRP here?
The value was -0.201.

Which “shrunken log2 fold change” value does the source give for RRIRPRPPRLPRPRPRPLIFPRP here?
The value was -0.411.

RRIRPRPPRLPRPRPRPLIMPRP was tested. Which “shrunken log2 fold change” value did it give?
Its value is -0.131.

Which “shrunken log2 fold change” value does the source give for RRIRPRPPRLPRPRPRPLIRPRP here?
The value was -0.218.

For RRIRPRPPRLPRPRPRPLIWPRP, which “shrunken log2 fold change” value is on record?
The value was 0.0601.

For RRIRPRPPRLPRPRPRPLKGPRP, which “shrunken log2 fold change” value is on record?
The value was 0.045.

For RRIRPRPPRLPRPRPRPLKLPRP, which “shrunken log2 fold change” value is on record?
Its value is -0.267.

For RRIRPRPPRLPRPRPRPLKNPRP, which “shrunken log2 fold change” value is on record?
The value was 0.186.

With RRIRPRPPRLPRPRPRPLLCPRP as the sequence, how does the “shrunken log2 fold change” value read?
Its value is 0.127.

RRIRPRPPRLPRPRPRPLLFPRP was tested. Which “shrunken log2 fold change” value did it give?
The value was 0.0745.

RRIRPRPPRLPRPRPRPLMSPRP was tested. Which “shrunken log2 fold change” value did it give?
Its value is -0.443.

With RRIRPRPPRLPRPRPRPLNAPRP as the sequence, how does the “shrunken log2 fold change” value read?
Its value is -0.0965.

Which “shrunken log2 fold change” value does the source give for RRIRPRPPRLPRPRPRPLPRPRP here?
Its value is 0.443.

How did the “shrunken log2 fold change” value turn out when RRIRPRPPRLPRPRPRPLQLPRP was run?
The value was -0.0598.

RRIRPRPPRLPRPRPRPLQWPRP was tested. Which “shrunken log2 fold change” value did it give?
Its value is -0.037.

Which “shrunken log2 fold change” value does the source give for RRIRPRPPRLPRPRPRPLSCPRP here?
Its value is -0.0219.

How did the “shrunken log2 fold change” value turn out when RRIRPRPPRLPRPRPRPLTCPRP was run?
The value was -0.191.

With RRIRPRPPRLPRPRPRPLWFPRP as the sequence, how does the “shrunken log2 fold change” value read?
Its value is 0.173.

Which “shrunken log2 fold change” value does the source give for RRIRPRPPRLPRPRPRPLWGPRP here?
Its value is 0.232.

With RRIRPRPPRLPRPRPRPLWVPRP as the sequence, how does the “shrunken log2 fold change” value read?
The value was 0.165.

How did the “shrunken log2 fold change” value turn out when RRIRPRPPRLPRPRPRPLYVPRP was run?
Its value is -0.433.

With RRIRPRPPRLPRPRPRPMADPRP as the sequence, how does the “shrunken log2 fold change” value read?
Its value is 0.131.

With RRIRPRPPRLPRPRPRPMATPRP as the sequence, how does the “shrunken log2 fold change” value read?
The value was 0.323.

Which “shrunken log2 fold change” value does the source give for RRIRPRPPRLPRPRPRPMCDPRP here?
Its value is 0.164.

With RRIRPRPPRLPRPRPRPMCMPRP as the sequence, how does the “shrunken log2 fold change” value read?
Its value is -0.32.

For RRIRPRPPRLPRPRPRPMDEPRP, which “shrunken log2 fold change” value is on record?
The value was 0.119.

Which “shrunken log2 fold change” value does the source give for RRIRPRPPRLPRPRPRPMDMPRP here?
The value was -0.784.

Which “shrunken log2 fold change” value does the source give for RRIRPRPPRLPRPRPRPMDYPRP here?
The value was -0.165.

How did the “shrunken log2 fold change” value turn out when RRIRPRPPRLPRPRPRPMGYPRP was run?
The value was -0.0838.

RRIRPRPPRLPRPRPRPMHAPRP was tested. Which “shrunken log2 fold change” value did it give?
Its value is 0.159.

Which “shrunken log2 fold change” value does the source give for RRIRPRPPRLPRPRPRPMHSPRP here?
Its value is 0.355.

For RRIRPRPPRLPRPRPRPMIEPRP, which “shrunken log2 fold change” value is on record?
Its value is -0.0882.

How did the “shrunken log2 fold change” value turn out when RRIRPRPPRLPRPRPRPMIQPRP was run?
The value was 0.0205.

For RRIRPRPPRLPRPRPRPMIRPRP, which “shrunken log2 fold change” value is on record?
The value was 0.339.

How did the “shrunken log2 fold change” value turn out when RRIRPRPPRLPRPRPRPMMAPRP was run?
The value was 0.0466.

RRIRPRPPRLPRPRPRPMMEPRP was tested. Which “shrunken log2 fold change” value did it give?
Its value is 0.0824.

RRIRPRPPRLPRPRPRPMPRPRP was tested. Which “shrunken log2 fold change” value did it give?
The value was 0.238.

How did the “shrunken log2 fold change” value turn out when RRIRPRPPRLPRPRPRPMQFPRP was run?
The value was 0.231.

For RRIRPRPPRLPRPRPRPMQQPRP, which “shrunken log2 fold change” value is on record?
Its value is -0.0524.

How did the “shrunken log2 fold change” value turn out when RRIRPRPPRLPRPRPRPMQTPRP was run?
Its value is 0.119.

Which “shrunken log2 fold change” value does the source give for RRIRPRPPRLPRPRPRPMREPRP here?
Its value is 1.07.

Which “shrunken log2 fold change” value does the source give for RRIRPRPPRLPRPRPRPMRGPRP here?
Its value is 0.887.

How did the “shrunken log2 fold change” value turn out when RRIRPRPPRLPRPRPRPMSHPRP was run?
Its value is 0.0914.

RRIRPRPPRLPRPRPRPMTAPRP was tested. Which “shrunken log2 fold change” value did it give?
Its value is 0.162.

With RRIRPRPPRLPRPRPRPMTWPRP as the sequence, how does the “shrunken log2 fold change” value read?
The value was -0.00489.

How did the “shrunken log2 fold change” value turn out when RRIRPRPPRLPRPRPRPMWHPRP was run?
The value was -0.208.

For RRIRPRPPRLPRPRPRPMWNPRP, which “shrunken log2 fold change” value is on record?
The value was -0.216.

For RRIRPRPPRLPRPRPRPMYDPRP, which “shrunken log2 fold change” value is on record?
The value was -0.0348.

For RRIRPRPPRLPRPRPRPMYPPRP, which “shrunken log2 fold change” value is on record?
Its value is -0.135.

With RRIRPRPPRLPRPRPRPMYTPRP as the sequence, how does the “shrunken log2 fold change” value read?
Its value is -0.236.

With RRIRPRPPRLPRPRPRPMYVPRP as the sequence, how does the “shrunken log2 fold change” value read?
Its value is -1.06.

For RRIRPRPPRLPRPRPRPNAEPRP, which “shrunken log2 fold change” value is on record?
Its value is 0.154.

With RRIRPRPPRLPRPRPRPNAPPRP as the sequence, how does the “shrunken log2 fold change” value read?
The value was 0.0216.

RRIRPRPPRLPRPRPRPNCVPRP was tested. Which “shrunken log2 fold change” value did it give?
The value was -0.0731.
